PMC13185310, “A versatile nanobody platform for live and super-resolution imaging of synaptic vesicle dynamics and plasticity in rodent and human neurons” (Journal of Nanobiotechnology, 2026)

Tests used:
Conditions in all cases: one partner purified
[1] = target: T1, endogenous Syt1 on the surface of live hippocampal neurons (uPAINT) (Rattus norvegicus (assumed), UniProt P21707); assay: single-molecule imaging on live neurons (uPAINT); live hippocampal neurons (21-22 DIV) in high-K+ buffer with 1 nM labelled nanobody complex, HILO, 50 Hz for 320 s, 37 °C
T1 construct: Synaptotagmin 1 (Syt1), endogenous; also called surface-exposed Syt1; source: endogenous, live hippocampal neurons (21-22 DIV)

[2] = target: T2, endogenous Synaptotagmin 1 of wild-type mouse neurons / brain (Mus musculus, UniProt P46096); assay: co-IP; GFP-tagged nanobody preloaded on GFP Selector beads; lysate of WT or Syt1 KO mouse brain, 1 h at 4 °C; blot with a Syt1 cytoplasmic antibody
T2 construct: Synaptotagmin 1 (Syt1), mouse, endogenous; On live neurons in the uptake experiment; in a detergent lysate in the immunoprecipitation; also called endogenous Syt1; Syt1; source: endogenous, WT mouse brain lysate (methods; the legend says mouse primary neurons); endogenous, on live WT mouse primary neurons

[3] = target: T3, endogenous Synaptotagmin 1 of primary hippocampal neurons (proximity labelling and PLA) (rat (endogenous in primary hippocampal …, UniProt P21707)); assay: proximity labelling; NbLumSyt1-APEX2 taken up by live primary neurons (30 min, with biotin-phenol), 1 mM H2O2 for 30 s; streptavidin beads, LC-MS/MS; controls: no nanobody, NbALFA-APEX2
T3 construct: Synaptotagmin 1 (Syt1), endogenous; spectra searched against the Rattus norvegicus proteome (UP000234681); neurons 'in most cases' from Wistar rat pups; also called Syt1; Syt1-lum; source: endogenous, live primary hippocampal neurons

[4] = target: T4, endogenous human Syt1 of human iPSC-derived neurons (Homo sapiens, UniProt P21579); assay: immunostaining of cells or tissue; live staining of 80-day-old human iPSC-derived hypothalamic neurons with 5.5 µM pHluorin-labeled nanobody, 20 min at 37 °C, with 30 mM KCl or 1 µM TTX, after blocking the surface pool with unlabeled nanobody; fixed and stained with anti-GFP, anti-Syt1, anti-TUBB3
T4 construct: Synaptotagmin 1 (Syt1), human, endogenous; also called endogenous Syt1; source: endogenous, live human iPSC-derived hypothalamic-like neurons
T4 sequence (P21579 whole entry): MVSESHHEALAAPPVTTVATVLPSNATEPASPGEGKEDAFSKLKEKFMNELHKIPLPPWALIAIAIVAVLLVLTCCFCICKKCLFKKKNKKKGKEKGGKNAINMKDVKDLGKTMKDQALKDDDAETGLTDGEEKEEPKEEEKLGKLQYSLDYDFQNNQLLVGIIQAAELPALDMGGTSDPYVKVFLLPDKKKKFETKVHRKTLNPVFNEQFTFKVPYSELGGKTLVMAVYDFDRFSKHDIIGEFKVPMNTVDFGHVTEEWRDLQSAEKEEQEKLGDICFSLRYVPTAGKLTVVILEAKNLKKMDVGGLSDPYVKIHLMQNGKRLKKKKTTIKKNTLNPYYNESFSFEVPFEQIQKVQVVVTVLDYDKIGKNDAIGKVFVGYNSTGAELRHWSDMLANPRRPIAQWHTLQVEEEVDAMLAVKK

T1 sequence (P21707 whole entry): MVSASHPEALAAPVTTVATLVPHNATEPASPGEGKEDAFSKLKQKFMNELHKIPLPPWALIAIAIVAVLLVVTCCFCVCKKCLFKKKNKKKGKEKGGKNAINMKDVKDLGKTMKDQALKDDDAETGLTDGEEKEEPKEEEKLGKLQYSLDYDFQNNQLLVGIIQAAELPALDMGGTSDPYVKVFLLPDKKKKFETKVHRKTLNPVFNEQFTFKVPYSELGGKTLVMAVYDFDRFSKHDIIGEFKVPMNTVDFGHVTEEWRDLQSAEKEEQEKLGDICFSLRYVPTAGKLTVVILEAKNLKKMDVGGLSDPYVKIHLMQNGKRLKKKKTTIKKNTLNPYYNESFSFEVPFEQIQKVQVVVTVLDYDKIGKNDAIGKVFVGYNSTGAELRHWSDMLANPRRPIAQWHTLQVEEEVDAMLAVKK
T2 sequence (P46096 whole entry): as the sequence (P21707 whole entry) above, with H6R counted along it
T3 sequence (P21707 whole entry): as the sequence (P21707 whole entry) above

B1: NbLumSyt1-HALO bound to the Halo-ligand JF549 (VHH)
VHH: EVQLVESGGGLVQTGGSLRLSCTASGSIGSISVMGWYRQVPGTQYELVAGISRGGSTWYEDSVKGRFTISRDNAKNTLYLQMNSLKPEDTGMYYCAGGDYSDRLGSWGQGTQVTVSS
notes: alpaca nanobody clone 1F12; as the nanobody of m1 (PDB 8B8I chain A); also called NbLumSyt1-HALO/JF549; NbLumSyt1-Halo/JF549; source: produced and purified via NanoTag Biotechnologies
Q: Does B1 bind [1]?
A: binds

B2: NbLumSyt1 fused to a GFP tag (VHH)
VHH: EVQLVESGGGLVQTGGSLRLSCTASGSIGSISVMGWYRQVPGTQYELVAGISRGGSTWYEDSVKGRFTISRDNAKNTLYLQMNSLKPEDTGMYYCAGGDYSDRLGSWGQGTQVTVSS
notes: alpaca nanobody clone 1F12; as the nanobody of m1 (PDB 8B8I chain A); Held on GFP Selector beads in the IP; detected with anti-GFP after uptake in neurons; also called GFP-tagged nanobody
Q: Does B2 bind [2]?
A: binds

B3: NbLumSyt1-APEX2 (VHH)
VHH: EVQLVESGGGLVQTGGSLRLSCTASGSIGSISVMGWYRQVPGTQYELVAGISRGGSTWYEDSVKGRFTISRDNAKNTLYLQMNSLKPEDTGMYYCAGGDYSDRLGSWGQGTQVTVSS
notes: alpaca nanobody clone 1F12; as the nanobody of m1 (PDB 8B8I chain A); also called Nb-APEX2
Q: Does B3 bind [3]?
A: binds

B4: NbLumSyt1-pHluorin (VHH)
VHH: EVQLVESGGGLVQTGGSLRLSCTASGSIGSISVMGWYRQVPGTQYELVAGISRGGSTWYEDSVKGRFTISRDNAKNTLYLQMNSLKPEDTGMYYCAGGDYSDRLGSWGQGTQVTVSS
notes: alpaca nanobody clone 1F12; as the nanobody of m1 (PDB 8B8I chain A); In uPAINT it was precomplexed with an anti-GFP nanobody carrying Atto647N (a label); A version with a TEV site in the linker also exists; also called NbSyt1-pH; pHluorin-labeled Syt1 nanobody
Q: Does B4 bind [1]?
A: binds

Q: Does B4 bind [4]?
A: binds
